Data published in the supplement of paper PMC9170038.

Test system: MS2 coat protein
Test: apparent KD of MS2 coat protein; designed switch direction (-1 OFF switch, 1 ON switch): -1; higher = weaker reporter binding
Procedure, shortened: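 Three titration conditions were used: no input, 200 uM small-molecule ligand, and an oligonucleotide input. In each, SNAP-549-labelled MS2 coat protein was raised from 0.7 or 1.5 nM, doubling, to 3 µM over designed RNA switches transcribed on Illumina chips by stalled E. coli RNA polymerase. Curve fits of normalised cluster fluorescence gave values whose per-design median over clusters is the apparent KD.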

[1] = input ligand: microRNA oligo, concentration not stated
[2] = Eterna round: R95, input ligand: microRNA oligo, concentration not stated

Sequence: GGAGGACGAGCAGGAUAUUUUCACAUGAGGAUCACCCAUGUGUACUCAGGGUAAUCCUCCGCCGAAGAGAAGGGUUCGGAAGAA [Socedi] (Eterna round: R96, puzzle: Exclusion NG 2)
- apparent KD of MS2 coat protein (input ligand: FMN 200 uM): 0.091 µM
- apparent KD of MS2 coat protein [1]: 0.023 µM
- apparent KD of MS2 coat protein (input ligand: none): 0.0571 µM

Sequence: AAAAUAAAAAUAAACAAGCACAUGAGGAUCACCCAUGUUCGUCUUAUAAAAAUAAAAAUAAAAAACAAAAAAUAAAA [Sensor V2: 48] (Eterna round: R96, puzzle: Sensor v2, turn-off variant)
- apparent KD of MS2 coat protein (input ligand: FMN 200 uM): 0.019 µM
- apparent KD of MS2 coat protein [1]: 0.0296 µM
- apparent KD of MS2 coat protein (input ligand: none): 0.0206 µM

Sequence: UUUACAAGCUUUUGAUCCCACAUGAGGAUCACCCAUGUUGCUGCCGGUGACGGUAGCAUAACAAAUGCUCGUCUUAU [JL TOV1 3.55] (Eterna round: R97, puzzle: Sensor, turn-off variant 1)
- apparent KD of MS2 coat protein (input ligand: FMN 200 uM): 0.846 µM
- apparent KD of MS2 coat protein (input ligand: none): 1.16 µM

Sequence: GAAGUAAAUGCAGGAUAUACCCACACAUGAGGAUCACCCAUGUAGUCUACUACGGUGUUCUCACGGUAGAAGGGCACAGCCGGA [Eternabot solution 31] (Eterna round: R96, puzzle: Exclusion NG 2)
- apparent KD of MS2 coat protein (input ligand: FMN 200 uM): 0.377 µM
- apparent KD of MS2 coat protein [1]: 0.267 µM
- apparent KD of MS2 coat protein (input ligand: none): 0.256 µM

Sequence: UUAACAUGCUGGUGAUCAUACAUGAGGAUCACCCAUGUAACAAGCUUUUUGUUCGUCUUAUAAGAUUACUAGUAUGU [Stov1/10-B1] (Eterna round: R97, puzzle: Sensor, turn-off variant 1)
- apparent KD of MS2 coat protein (input ligand: FMN 200 uM): 0.0394 µM
- apparent KD of MS2 coat protein (input ligand: none): 0.0594 µM

Sequence: UUGACGGCAGGAUAUACAUGAGGAUCACCCAUGUAAAUUUUUCGUUUAACUUGAAUGUGUAGAAGGGCCAUGUU [Ex3 #72] (Eterna round: R97, puzzle: Exclusion 3)
- apparent KD of MS2 coat protein (input ligand: FMN 200 uM): 0.0182 µM
- apparent KD of MS2 coat protein (input ligand: none): 0.019 µM

Sequence: AUAAAUAAGGAGGAUAUCGAAUCGGAAACGAUUCGAGAAGGCCUAACAUGAGGAUCACCCAUGUUCCUUAAAUA [Mat - Exclusion 6 - Eli Mod - D63] (puzzle: Exclusion 6)
- apparent KD of MS2 coat protein (Eterna round: R95, input ligand: FMN 200 uM): 0.0302 µM
- apparent KD of MS2 coat protein [2]: 0.0176 µM
- apparent KD of MS2 coat protein (Eterna round: R95, input ligand: none): 0.0208 µM

Sequence: AGCUAGUGCCGAGGAUAUACAUGAGGAUCACCCAUGUAAGCCAGUCGGUUUCUGACUGGCAAGAUGUAGAAGGCGGCGUUGGCA [JL ENG2 1.50] (Eterna round: R96, puzzle: Exclusion NG 2)
- apparent KD of MS2 coat protein (input ligand: FMN 200 uM): 0.0571 µM
- apparent KD of MS2 coat protein [1]: 0.00957 µM
- apparent KD of MS2 coat protein (input ligand: none): 0.0135 µM

Sequence: ACAAGCUAUCUCUUAUCUUACAUGAGGAUCACCCAUGUUUUUUCAAUUUUGUUUGGUCUCCUUUGUGCUCGUCUUAU [JR_STOV1_Sub053] (Eterna round: R97, puzzle: Sensor, turn-off variant 1)
- apparent KD of MS2 coat protein (input ligand: FMN 200 uM): 0.0532 µM
- apparent KD of MS2 coat protein (input ligand: none): 0.0552 µM

Sequence: GGACCGUGUGUGAGGAUAUGCUGGUCCUUGGAUCAGCAGAAGGCACAUGAGGAUCACCCAUGUGGUGUCGGUCC [Eli bmx4 4.35] (Eterna round: R97, puzzle: Brourd's mod of Exclusion 4)
- apparent KD of MS2 coat protein (input ligand: FMN 200 uM): 0.182 µM
- apparent KD of MS2 coat protein (input ligand: none): 1.78 µM

Sequence: UGCAUGUGAGGAUAUGUGUACUGUCUUUUGUUUAGAUGUACACAGAAGGCACAUGAGGAUCACCCAUGUAGUAC [Ex4 - 3 - 34] (puzzle: Exclusion 4)
- apparent KD of MS2 coat protein [2]: 0.0591 µM

Sequence: UUUUAACAUGAGGAUCACCCAUGUGAGGAUAUCGAAAUUUAUAUUUAUAUUUAUUAAUCGAGAAGGCACAUUUU [JMF 100] (puzzle: Exclusion 1)
- apparent KD of MS2 coat protein [2]: 0.121 µM

Sequence: UCUGCCGCCGUGAGGAUAUGCCCGCGCAAACGCGGGCAGAAGGCACAUGAGGAUCACCCAUGUCCCGCGGUUUU [salish99_bmx4_r4_133] (Eterna round: R97, puzzle: Brourd's mod of Exclusion 4)
- apparent KD of MS2 coat protein (input ligand: FMN 200 uM): 0.0387 µM
- apparent KD of MS2 coat protein (input ligand: none): 0.0183 µM

Sequence: AAGCUGAAGUGCCCGUCUUACAUGAGGAUCACCCAUGUUUUGCUGAAGCGAAUACUCGCAUUAGCAAGUGAGGUCCA [Eternabot (Original) Solution 9] (Eterna round: R97, puzzle: Sensor, turn-off variant 1)
- apparent KD of MS2 coat protein (input ligand: FMN 200 uM): 0.0682 µM
- apparent KD of MS2 coat protein (input ligand: none): 0.0539 µM
